13 molecules from US20210230294A1 (Incyte, published 2021) can be followed below.

The chains are these.
T1: human CD73 on the cell surface (MDA-MB-231 and A375 cells) (human, UniProt P21589 27-549)
T1 construct: also called cell surface CD73; cellular CD73
T1 sequence: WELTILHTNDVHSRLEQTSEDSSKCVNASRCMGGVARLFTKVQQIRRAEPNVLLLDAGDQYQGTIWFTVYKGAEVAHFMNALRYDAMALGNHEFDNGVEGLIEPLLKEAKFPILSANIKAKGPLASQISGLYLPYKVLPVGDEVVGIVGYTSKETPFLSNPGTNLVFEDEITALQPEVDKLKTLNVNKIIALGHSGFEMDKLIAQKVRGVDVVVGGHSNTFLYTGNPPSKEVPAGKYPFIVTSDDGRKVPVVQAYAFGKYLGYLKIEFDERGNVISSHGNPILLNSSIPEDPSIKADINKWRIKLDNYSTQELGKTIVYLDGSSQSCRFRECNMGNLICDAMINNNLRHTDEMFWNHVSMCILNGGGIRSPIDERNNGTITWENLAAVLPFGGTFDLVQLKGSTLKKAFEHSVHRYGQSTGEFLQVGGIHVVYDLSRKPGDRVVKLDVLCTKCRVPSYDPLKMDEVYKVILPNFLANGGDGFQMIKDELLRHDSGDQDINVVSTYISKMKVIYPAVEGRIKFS

T2: mouse CD73 (SEQ ID NO:71) (mouse, UniProt Q61503 29-551)
T2 construct: Open conformation (normal SPR running buffer); also called Murine; murine CD73
T2 sequence: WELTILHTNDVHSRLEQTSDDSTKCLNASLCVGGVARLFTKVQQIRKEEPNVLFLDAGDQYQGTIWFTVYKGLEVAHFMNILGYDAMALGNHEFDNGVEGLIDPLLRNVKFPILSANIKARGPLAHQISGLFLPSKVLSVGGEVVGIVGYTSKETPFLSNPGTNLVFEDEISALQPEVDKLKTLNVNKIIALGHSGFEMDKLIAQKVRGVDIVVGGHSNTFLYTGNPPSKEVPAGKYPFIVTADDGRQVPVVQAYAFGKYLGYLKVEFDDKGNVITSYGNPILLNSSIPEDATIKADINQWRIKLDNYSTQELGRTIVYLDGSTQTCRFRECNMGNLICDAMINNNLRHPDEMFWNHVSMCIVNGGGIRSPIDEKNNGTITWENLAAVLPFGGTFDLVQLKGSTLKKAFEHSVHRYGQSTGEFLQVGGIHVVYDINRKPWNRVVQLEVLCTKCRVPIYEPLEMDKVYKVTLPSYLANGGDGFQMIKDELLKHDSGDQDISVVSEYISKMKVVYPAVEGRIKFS

T3: cynomolgus CD73 (SEQ ID NO:72) (cynomolgus, UniProt P21589 27-549 (human entry))
T3 construct: Open conformation (normal SPR running buffer)
T3 chain: T1 sequence with M199T, T350A, V466I

T4: recombinant human CD73 (SEQ ID NO:70) (human, UniProt P21589 27-549)
T4 construct: Soluble recombinant protein in normal SPR running buffer (open conformation), the soluble enzyme assay and HDX-MS; SPR stock bought from BPS Bioscience; also called rhuCD73; CD73 in the open conformation
T4 sequence: T1 sequence

B1: CL25_hu_11-4 (antibody, V domains shown)
VH: QVQLVQSGAEVKKPGASVKVSCKASGYTFTSYGLSWVRQATGQGLEWMGEIYPGSGNTYYNEKFKGRVTMTANTSISTAYMELSSLRSEDTAVYYCARYDYLGSSYGFDYWGAGTTVTVSS
VL: DIQMTQSPSSLSASVGDRVTITCKASQDVSTAVAWYQQKPGKAPKLLLYSASYRYSGVPSRFSGSGSGTDYTLTISSLQPEDFATYYCQQHYNTPYTFGGGTKLEIK
notes: Humanized CL25 antibody
B2: 3-F03 (full-length human antibody) (antibody, human IgG1, kappa, N297A)
heavy: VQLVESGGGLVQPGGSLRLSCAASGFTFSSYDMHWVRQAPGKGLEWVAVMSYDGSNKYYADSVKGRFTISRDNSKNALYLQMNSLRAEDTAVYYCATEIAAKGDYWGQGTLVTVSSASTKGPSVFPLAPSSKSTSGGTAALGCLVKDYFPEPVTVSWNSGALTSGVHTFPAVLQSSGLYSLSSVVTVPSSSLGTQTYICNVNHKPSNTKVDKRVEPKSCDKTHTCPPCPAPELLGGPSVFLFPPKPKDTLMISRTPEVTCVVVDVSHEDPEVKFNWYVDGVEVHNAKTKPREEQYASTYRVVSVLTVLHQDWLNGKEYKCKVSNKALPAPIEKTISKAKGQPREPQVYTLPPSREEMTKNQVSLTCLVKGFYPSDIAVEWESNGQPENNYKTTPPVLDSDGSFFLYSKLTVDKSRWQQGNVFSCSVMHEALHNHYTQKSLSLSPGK
light: IQMTQSPSSLSASVGDRVTITCRASQGISNYLAWYQQKPGKAPKLLIYAASTLQSGVPSRFSGSGSGTDFTLTISSLQPEDFATYYCQQSYSTPHFGQGTRLEIKRTVAAPSVFIFPPSDEQLKSGTASVVCLLNNFYPREAKVQWKVDNALQSGNSQESVTEQDSKDSTYSLSSTLTLSKADYEKHKVYACEVTHQGLSSPVTKSFNRGEC
notes: Human IgG1/kappa with N297A; also called Antibody 3-F03; Clone 3-F03
B3: HzCL25 (antibody, human IgG1, kappa, N297A, V domains shown)
VH: EVQLVQSGAEVKKPGESLKISCKGSGYTFTSYGLSWVRQMPGKGLEWMGEIYPGSGNTYYNEKFKGQVTISADKSISTAYLQWSSLKASDTAMYYCARYDYLGSSYGFDYWGAGTTVTVSS
VL: DIVMTQSPDSLAVSLGERATINCKASQDVSTAVAWYQQKPGQPPKLLIYSASYRYSGVPDRFSGSGSGTDFTLTISSLQAEDVAVYYCQQHYNTPYTFGGGTKLEIKR
notes: Humanized IgG1/kappa with N297A; also called humanized CL25
B4: CL25_hu_10-4 (antibody, V domains shown)
VH: B3 VH
VL: B1 VL
notes: Humanized CL25 antibody
B5: CL25_hu_9-6 (antibody, V domains shown)
VH: B1 VH with A16S, T41P, M70I, N73D, T74E, I76T
VL: B1 VL with D1A, Q3R, L11F, V15T, L48I, Y71F, S77C, P80S
notes: Humanized CL25 antibody
B6: CL25_hu_11-5 (antibody, V domains shown)
VH: B1 VH
VL: DIVMTQSPDSLAVSLGERATINCKASQDVSTAVAWYQQKPGQPPKLLIYSASYRYSGVPDRFSGSGSGTDFTLTISSLQAEDVAVYYCQQHYNTPYTFGGGTKLEIK
notes: Humanized CL25 antibody
B7: CL25_hu_9-5 (antibody, V domains shown)
VH: B1 VH with A16S, T41P, M70I, N73D, T74E, I76T
VL: B6 VL
notes: Humanized CL25 antibody
B8: CL25_hu_8-6 (antibody, V domains shown)
VH: B1 VH with A72R
VL: B1 VL with D1A, Q3R, L11F, V15T, L48I, Y71F, S77C, P80S
notes: Humanized CL25 antibody
B9: CL25_hu_11-6 (antibody, V domains shown)
VH: B1 VH
VL: B1 VL with D1A, Q3R, L11F, V15T, L48I, Y71F, S77C, P80S
notes: Humanized CL25 antibody
B10: CL25_hu_8-4 (antibody, V domains shown)
VH: B1 VH with A72R
VL: B1 VL
notes: Humanized CL25 antibody; captured by anti-human Fc in SPR
B11: CL25_hu_8-5 (antibody, V domains shown)
VH: B1 VH with A72R
VL: B6 VL
notes: Humanized CL25 antibody
B12: CL25_hu_9-4 (antibody, V domains shown)
VH: B1 VH with A16S, T41P, M70I, N73D, T74E, I76T
VL: B1 VL
notes: Humanized CL25 antibody
B13: CL25_hu_10-6 (antibody, V domains shown)
VH: B3 VH
VL: B1 VL with D1A, Q3R, L11F, V15T, L48I, Y71F, S77C, P80S
notes: Humanized CL25 antibody

Numbering of substitutions follows the chain as printed. Numbers in names are those of the source.

One experiment deals with T1, human CD73 on the cell surface …. Description: flow cytometry on MDA-MB-231 cells, PE-conjugated secondary antibody, GMFI. As to the method: The cells were stained with the indicated concentration of antibodies for 30 minutes on ice (FIG. 2A and FIG. 2B). Next, the cells were washed and stained using goat anti-mouse secondary conjugated to phycoerythrin (PE) for 30 minutes on ice. The cells were then washed and analyzed by flow cytometry. Geometric mean fluorescence intensity (GMFI) of CD73 staining was graphed (FIG. 2A and FIG. 2B).
A word on the EC50 (read off the curve): it is the concentration at which the effect is half-maximal. On to B1, for which the “EC50 (read off the curve)” value is approximately 0.1 µg/mL.

The next experiment shares this target. The description is as above. This is another data set of the same source.
Take B2: the “EC50 (read off the curve)” value was approximately 3 µg/mL.

In a further experiment the target is T2, mouse CD73 (SEQ ID NO:71). Description: SPR (Biacore 8K), antibody captured on anti-human Fc, CD73 as analyte, open conformation. As to the method: (§1) The SPR running buffer (10 mM HEPES, 150 mM NaCl, 3 mM EDTA and 0.05% v/v Surfactant P20, pH 7.4) was prepared from 10×HBS-EP Buffer (GE Healthcare). Anti-human Fc antibodies (GE Healthcare) were immobilized via amine coupling on all sixteen flow cells of an S series sensor chip CM5 (GE Healthcare). The immobilization levels were ˜9000 RU for all flow cells. […] The non-cleavable ADP analogue APCP (adenosine-5′-(α,β-methylene) diphosphate) with the presence of Zn²⁺ can be used to shift the CD73 conformational equilibrium from open towards closed. Therefore, recombinant CD73 was incubated with SPR running buffer in the presence of 100 μM APCP and 10 μM ZnCl₂ (closed SPR running buffer) to study the binding of anti-CD73 antibody to the CD73 in the closed conformation. To achieve this, the ABA injection feature in Biacore 8K was used. For open conformation, the ABA injection sequence started with 60 seconds injection of running buffer. Then, CD73 3-fold serial dilution concentration series prepared from CD73 stock (BPS Bioscience) and running buffer were injected for 180 seconds immediately followed by running buffer for 240 seconds. For closed conformation, the normal SPR running buffer was replaced by closed SPR running buffer. Surface was regenerated with 30 seconds injection of 3 M MgCl₂.
For orientation: In SPR one partner is held on a chip, and binding of the other changes the refractive index at the surface.
A word on the Kd: it is the free concentration of one partner at which half of the binding sites on the other are occupied at equilibrium, for simple one-to-one binding. In the case of B2, the Kd stood at 1.66 nM.

For B3, the binding result is reported as “no binding”.

In a further experiment the target is T3, cynomolgus CD73 (SEQ ID NO:72). The description is as above. As to the method:
as §1
As to B2, binding was characterised by a dissociation constant (Kd) of 0.734 nM.

As a reminder, the koff is the first-order rate constant of dissociation. As usually defined, the kon is the second-order rate constant of association. Molecule B3 came in with a Kd of less than 0.468 nM, an off-rate constant (koff) of 0.000468 s⁻¹ and a kon of more than 1e+06 M⁻¹ s⁻¹.

A further experiment concerns the target T4, recombinant human CD73 (SEQ ID NO:70). The description is as above. As for the experimental part:
as §1
Consider B1, for which the Kd came to 2.48 nM, the koff was 0.00155 s⁻¹ and the kon turned out to be 624000 M⁻¹ s⁻¹.

For B4, the Kd turned out to be 1.2 nM, the koff turned out to be 0.00107 s⁻¹ and the kon stood at 887000 M⁻¹ s⁻¹.

Consider B5, for which the equilibrium dissociation constant (Kd) was determined as 2.25 nM, the koff turned out to be 0.000953 s⁻¹ and the kon is 424000 M⁻¹ s⁻¹.

On to B6, for which the Kd amounted to 1.46 nM, the koff came to 0.00117 s⁻¹ and the kon is 799000 M⁻¹ s⁻¹.

Take B7: the Kd was determined as 2.02 nM, the koff came to 0.00114 s⁻¹ and the on-rate (kon) amounted to 565000 M⁻¹ s⁻¹.

Consider B8, for which the Kd is 1.55 nM, the koff turned out to be 0.00111 s⁻¹ and the kon came to 715000 M⁻¹ s⁻¹.

As for B9, the Kd stood at 1.84 nM, the koff turned out to be 0.00101 s⁻¹ and the kon is 550000 M⁻¹ s⁻¹.

Turning to B10, the Kd was 2.29 nM, the koff stood at 0.00176 s⁻¹ and the kon was found to be 770000 M⁻¹ s⁻¹.

Turning to B11, the Kd came to 0.718 nM, the koff is 0.000949 s⁻¹ and the kon is more than 1e+06 M⁻¹ s⁻¹.

Turning to B12, the Kd is 6.9 nM, the koff is 0.00264 s⁻¹ and the on-rate (kon) came to 382000 M⁻¹ s⁻¹.

B13: the Kd stood at 1.75 nM, the koff was 0.00092 s⁻¹ and the kon was 524000 M⁻¹ s⁻¹.

B2: the Kd is 0.37 nM.

For the molecule B3, the Kd is less than 0.449 nM, the koff stood at 0.000449 s⁻¹ and the kon was more than 1e+06 M⁻¹ s⁻¹.

A further experiment has as its target T1, human CD73 on the cell surface …. The experiment in a line: flow cytometry on A375 cells, PE-conjugated secondary antibody, GMFI. Background: Flow cytometry measures light scatter and fluorescence of single cells or particles in a stream.
Take B2: the “EC50 (read off the curve)” value was approximately 0.1 µg/mL.
